Experimental data from article doi:10.1101/247270.

Target: Dansyl-calmodulin (dansyl-CaM), purified, P0DP23
Experiment: other fluorescence titration
Conditions: remark: other sources report otherwise

stoichiometry N: 1
B1: Regulator of G Protein Signaling 14 (RGS14), purified recombinant protein, O08773 1-544 (natural protein)
chain: MPGKPKHLGVPNGRMVLAVSDGELTSTSGSQAQGEGRGSSLSIHSLPSGPSSPFSTDEQPVASWAQSFERLLQDPRGLAYFTEFLKKEFSAENVTFWQACERFQQIPASDTKQLAQEAHNIYHEFLSSQALSPVNIDRQAWLSEEVLAQPRPDMFRAQQLQIFNLMKFDSYARFVKSPLYQECLLAEAEGRPLREPGSSHLGSPDTARKKPKLKPGKSLPLGVEELGQLPLAEGRPLRKSFRREMPGGAVNSALRRESQGSLNSSASLDLGFLAFVSSKSESHRKSLGSGEGESESRPGKYCCVYLPDGTASLALARPGLTIRDMLAGICEKRGLSLPDIKVYLVGKEQKALVLDQDCTVLADQEVRLENRITFQLELVGLERVVRISAKPTKRLQEALQPILAKHGLSLDQVVLHRPGEKQLVDLENLVSSVASQTLVLDTLPDAKTREASSIPPCRSQGCLPRTQTKDSHLPPLSSSLSVEDASGSTGKRQTCDIEGLVELLNRVQSSGAHDQRGLLRKEDLVLPEFLQLPSQRPGSQEAPP
modifications: here or on the partner: dansyl label (position not given)
